Measured values published in the supplement of paper PMC10567573.

B1: IKZF1 (parent)
chain: HIKLHSGEKPFKCHLCNYACRRRD
B2: C9orf25 (parent)
chain: LARKGSLKNGSMGSPVNQQPKKNN

Variants of: B1
Assay: protein stability index of a GFP-peptide fusion (GPS, HEK-293T) (PSI 1-6); higher = more stable
Conditions: c terminus: a fixed tail appended
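Note: lentivirally expressed fusions sorted by FACS into six bins by GFP to DsRed ratio, PSI derived from sequencing read proportions per bin multiplied by bin number.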

Protein stability index: each site, then its substitutions
H14: C 3.78 | A 1.5 | D 2.82 | E 1.66 | G 1.89 | V 2.23 | N 1.69 | W 2.23 | M 1.54 | Q 1.83 | P 1.83 | R 2.26 | I 1.55 | T 2.42 | F 2.32 | S 2.09 | L 1.88 | K 2.39 | Y 1.45
N17: H 1.98 | V 2.39 | D 1.47 | S 1.97 | C 1.3 | T 2.12 | Y 1.52 | M 1.86 | Q 1.43 | I 2.86 | F 2.79 | R 1.53 | P 1.56 | K 1.2 | W 1.62 | A 2.67 | L 2.07 | G 2.05
C13: E 2.58 | P 2.97 | L 1.85 | Q 2.75 | H 2.79 | W 2.73 | S 2.36 | Y 1.77 | N 3.53 | F 2.01 | A 2.28 | T 2.91 | G 3.04 | M 2.15 | D 3.34 | K 3 | I 2.28 | R 2.26 | V 2.21
C16: K 2.91 | Q 2.12 | N 2.8 | Y 1.88 | F 2.05 | S 2.96 | E 3.02 | W 2.14 | H 2.29 | I 2.35 | R 2.81 | T 2.8 | D 2.98 | G 3.03 | M 2.04 | A 2.04 | P 2.2 | L 2.26 | V 1.81
C20: E 1.83 | W 2.83 | G 1.96 | K 1.64 | D 1.59 | A 2.41 | Y 1.86 | P 3.08 | S 1.69 | F 2.25 | Q 2.39 | M 2.5 | T 2.08 | V 2.89 | N 2.35 | H 1.94 | L 1.63 | R 1.96
Y18: P 1.94 | N 1.88 | S 1.58 | G 2.84 | M 2.17 | E 2.02 | W 1.16 | T 1.54 | K 1.99 | L 2.23 | C 2.04 | Q 2.67 | I 1.48 | F 2.07 | D 2.7 | H 1.82 | A 2.04 | R 2.15
A19: N 2.27 | D 1.58 | I 2.13 | V 1.4 | S 1.94 | G 1.49 | R 2.62 | W 2.52 | T 1.81 | E 2.1 | C 1.64 | Q 1.67 | Y 1.32 | K 3.11 | H 1.85 | L 2 | M 1.88 | F 2.07 | P 1.71
R22: C 1.87 | P 1.86 | D 1.76 | Y 2.05 | F 2.03 | I 1.7 | S 2.97 | T 2.5 | Q 2.2 | L 1.72 | N 1.2 | M 1.87 | A 1.68 | G 1.5 | H 2.71 | V 1.91 | W 3.09 | K 1.95 | E 1.95
D24: N 1.76 | F 2.54 | G 2.04 | I 2.89 | Q 1.73 | Y 1.9 | C 2.22 | L 2.01 | A 2.29 | H 2.06 | V 2.39 | S 1.43 | R 2.22 | T 2.31 | P 2.09 | K 2.48 | M 1.97 | E 1.99
R21: K 2.19 | D 1.29 | E 2.27 | M 1.79 | N 1.65 | G 2.41 | Q 1.15 | P 2.39 | S 1.99 | H 2.27 | A 3.46 | W 1.49 | T 2.38 | V 1.3 | C 1.78 | L 1.59 | Y 1.58 | F 2.22
F11: D 2.15 | K 2.6 | R 1.74 | I 1.46 | M 2.21 | Q 2.41 | Y 1.52 | S 1.64 | H 2.2 | N 1.77 | V 1.46 | T 1.85 | C 1.83 | L 2.12 | E 2.17 | P 1.67 | G 2.06
K12: A 1.77 | Y 2.13 | E 2.29 | R 2.23 | T 1.68 | H 1.7 | F 2.25 | D 1.68 | M 2.02 | W 1.59 | C 2.32 | S 1.95 | N 1.67 | V 2.21 | I 1.78 | P 1.78 | Q 2.28 | L 1.82 | G 2.38
L15: H 2.14 | N 2.27 | M 1.36 | F 1.89 | Q 2.47 | I 2.44 | G 2.43 | D 1.74 | T 2.92 | E 2.5 | R 2.3 | Y 1.63 | V 1.78 | P 2.64 | W 2.44 | S 2.11 | A 2.28 | C 2.66 | K 2.68
R23: D 2.18 | I 2 | F 2.36 | S 1.87 | M 2.4 | P 2.02 | L 1.44 | K 2.26 | C 2.27 | T 1.48 | V 2.4 | A 2.13 | E 1.8 | H 2.12 | Y 1.72 | G 2.04 | Q 1.71 | N 1.63 | W 2.21

Variants of: B2
Assay: as above
Conditions: c terminus: a fixed tail appended

Protein stability index, by site and new letter:
A2: P 5.21 | K 4.13 | I 4.37 | G 4.76 | W 4.03 | Y 4.24 | N 4.59 | Q 4.63 | R 3.68 | E 5.09 | T 4.54 | D 4.87 | F 4.04 | S 4.72 | C 4.12 | M 4.9 | H 4.77 | L 4.58 | V 4.07
R3: P 5.03 | T 4.85 | W 4.14 | V 4.85 | G 5.02 | S 4.67 | A 5.05 | F 4.54 | M 4.85 | C 4.85 | D 5.2 | K 4.33 | H 4.85 | E 4.69 | I 4.58 | N 4.96 | Y 4.73 | L 4.41 | Q 4.99
L1: C 4.32 | M 4.89 | D 5.07 | S 5.53 | T 4.31 | P 4.76 | Q 4.85 | A 5.34 | G 5.15 | I 4.66 | V 4.92 | F 3.96 | R 4.81 | N 5.07 | K 4.76 | Y 3.77 | H 4.95 | W 4.3 | E 5.35
K4: N 4.25 | I 3.71 | H 4.68 | G 5.17 | V 4.42 | D 4.88 | R 3.74 | Q 3.95 | E 4.91 | S 4.68 | M 4.62 | P 4.92 | L 4.23 | A 4.74 | F 5.08 | W 4.15 | C 4.74 | T 5
